Source: patent US10189877

Target: DSV^4 VLPs (Dengue virus serotypes 1-4; Hepatitis B virus; Hepatitis B virus)
Assay: sandwich ELISA: mAb coated, DSV^4 VLPs added, detected with peroxidase labelled anti-HBsAg

Substance	ELISA OD [OD]
4G2 (antibody)	0.05
3H5 (antibody)	0.77
